To fix the notation:
B1: 3BP-3905 (peptide)
peptide: {DOTA-APAc}-VYCE[dP]DWLTWSC-NH2
modifications: linker 3-12 via mXylylene; reading uncertain; also: ['indium complexed by DOTA']
B2: 3BP-3957 (peptide)
peptide: Ac-VYCE[dP]KWL[dE]WSC-NH2
modifications: linker 3-12 via mXylylene; lactam 6-9
SMILES: CC(=O)N[C@H](C(=O)N[C@@H](Cc1ccc(O)cc1)C(=O)N[C@H]1CSCc2cccc(c2)CSC[C@@H](C(N)=O)NC(=O)[C@H](CO)NC(=O)[C@H](Cc2c[nH]c3ccccc23)NC(=O)[C@H]2CCC(=O)NCCCC[C@H](NC(=O)[C@H]3CCCN3C(=O)[C@H](CCC(=O)O)NC1=O)C(=O)N[C@@H](Cc1c[nH]c3ccccc13)C(=O)N[C@@H](CC(C)C)C(=O)N2)C(C)C
B3: 3BP-3890 (peptide)
peptide: Ac-VYCE[dP]KWLEWSC-NH2
modifications: linker 3-12 via mXylylene; lactam 6-9
SMILES: CC(=O)N[C@H](C(=O)N[C@@H](Cc1ccc(O)cc1)C(=O)N[C@H]1CSCc2cccc(c2)CSC[C@@H](C(N)=O)NC(=O)[C@H](CO)NC(=O)[C@H](Cc2c[nH]c3ccccc23)NC(=O)[C@@H]2CCC(=O)NCCCC[C@H](NC(=O)[C@H]3CCCN3C(=O)[C@H](CCC(=O)O)NC1=O)C(=O)N[C@@H](Cc1c[nH]c3ccccc13)C(=O)N[C@@H](CC(C)C)C(=O)N2)C(C)C
B4: 3BP-3934 (peptide)
peptide: {DOTA}-YCE[dP]KWLEWSC-NH2
modifications: linker 2-11 via mXylylene; lactam 5-8
SMILES: CC(C)C[C@@H]1NC(=O)[C@H](Cc2c[nH]c3ccccc23)NC(=O)[C@@H]2CCCCNC(=O)CC[C@H](NC1=O)C(=O)N[C@@H](Cc1c[nH]c3ccccc13)C(=O)N[C@@H](CO)C(=O)N[C@H](C(N)=O)CSCc1cccc(c1)CSC[C@H](NC(=O)[C@H](Cc1ccc(O)cc1)NC(=O)CN1CCN(CC(=O)O)CCN(CC(=O)O)CCN(CC(=O)O)CC1)C(=O)N[C@@H](CCC(=O)O)C(=O)N1CCC[C@@H]1C(=O)N2
B5: 3BP-4005 (peptide)
peptide: Ac-VYCE[dP][Orn]WLDWSC-NH2
modifications: linker 3-12 via mXylylene; lactam 6-9
SMILES: CC(=O)N[C@H](C(=O)N[C@@H](Cc1ccc(O)cc1)C(=O)N[C@H]1CSCc2cccc(c2)CSC[C@@H](C(N)=O)NC(=O)[C@H](CO)NC(=O)[C@H](Cc2c[nH]c3ccccc23)NC(=O)[C@@H]2CC(=O)NCCC[C@H](NC(=O)[C@H]3CCCN3C(=O)[C@H](CCC(=O)O)NC1=O)C(=O)N[C@@H](Cc1c[nH]c3ccccc13)C(=O)N[C@@H](CC(C)C)C(=O)N2)C(C)C
B6: 3BP-3314 (peptide)
peptide: Ac-VYCE[Sar]D[1Nal]LTWQC-NH2
modifications: linker 3-12 via mXylylene
SMILES: CC(=O)N[C@H](C(=O)N[C@@H](Cc1ccc(O)cc1)C(=O)N[C@H]1CSCc2cccc(c2)CSC[C@@H](C(N)=O)NC(=O)[C@H](CCC(N)=O)NC(=O)[C@H](Cc2c[nH]c3ccccc23)NC(=O)[C@H]([C@@H](C)O)NC(=O)[C@H](CC(C)C)NC(=O)[C@H](Cc2cccc3ccccc23)NC(=O)[C@H](CC(=O)O)NC(=O)CN(C)C(=O)[C@H](CCC(=O)O)NC1=O)C(C)C
notes: also called Ac-Val-Tyr-[Cys(3MeBn)-Glu-Nmg-Asp-1Ni-Leu-Thr-Trp-Gln-Cys]-NH2
B7: 3BP-3311 (peptide)
peptide: Ac-VYCE[Sar]D[Bta]LTWQC-NH2
modifications: linker 3-12 via mXylylene
SMILES: CC(=O)N[C@H](C(=O)N[C@@H](Cc1ccc(O)cc1)C(=O)N[C@H]1CSCc2cccc(c2)CSC[C@@H](C(N)=O)NC(=O)[C@H](CCC(N)=O)NC(=O)[C@H](Cc2c[nH]c3ccccc23)NC(=O)[C@H]([C@@H](C)O)NC(=O)[C@H](CC(C)C)NC(=O)[C@H](Cc2csc3ccccc23)NC(=O)[C@H](CC(=O)O)NC(=O)CN(C)C(=O)[C@H](CCC(=O)O)NC1=O)C(C)C
notes: also called Ac-Val-Tyr-[Cys(3MeBn)-Glu-Nmg-Asp-Bta-Leu-Thr-Trp-Gln-Cys]-NH2

The source of these data is patent US20250339569A1 (3B PHARMACEUTICALS, published 2025).

Starred links: 1 amine or outer side, 2 acyl side, 3 side chain; linkers in the order of their positions; H or OH if unused. Positions of bridges follow the written chain, without caps; N, C: chain ends. Non-standard residues stand in square brackets, D forms with d. Groups on a side chain read outwards from the residue. Primed or numbered codes have the meaning given here. *: point of attachment. Eem = S-benzyl-cysteine-sulfone, O=C([C@H](CS(=O)(=O)Cc1ccccc1)N[*:1])[*:2]; APAc″ = 2-(4-(amino)piperidin-1-yl)acetic acid, NC1CCN(CC(=O)*)CC1; DOTA = O=C(O)CN1CCN(CC(=O)O)CCN(CC(=O)*)CCN(CC(=O)O)CC1; 1Nal = N[C@@H](Cc1cccc2ccccc12)C(=O)O; mXylylene = c1cc(C[*:1])cc(C[*:2])c1; Bta = N[C@@H](Cc1csc2ccccc12)C(=O)O; NHMe2Nph = not defined here; NMeS = CN[C@@H](CO)C(=O)O; hSer = N[C@@H](CCO)C(=O)O; 2Quyl = not defined here; AGLU′ = not defined here; Orn = NCCC[C@H](N)C(=O)O; APAc = not defined here; Apr = not defined here; Bn = c1ccc(C*)cc1; Sar = CNCC(=O)O

The target of one assay is human carbonic anhydrase 9 (CAIX) (human, UniProt Q16790 38-459). The experiment in a line: FACS competition on HT-29 cells, competitor tracer 3BP-2776; category A = pIC50 >8.0. Here is the method: CAIX-expressing human HT-29 colorectal cancer cells (DSMZ, RRID: CVCL_0320) were cultured in McCoys's 5A modified medium (Biochrom, #F1015) including 10% fetal calf serum (FCS), 2 mM L-glutamine, 100 U/ml penicillin and 100 μg/mL streptomycin. Cells were detached with Accutase (Biolegend, #423201) and washed in FACS buffer (PBS including 1% FCS). Cells were diluted in FACS buffer to a final concentration of 500.000 cells per ml. 200 μL of the cell suspension were transferred to a u-shaped non-binding 96-well plate (Greiner) and cells were washed in ice-cold FACS buffer.
When biotinylated compounds were used an additional incubation step with 1 μg/mL APC-Streptavidin (Miltenyi; #130-106-791) in 50 μL FACS buffer for 30 minutes on ice was performed.
Cells were washed twice with ice-cold FACS buffer and analyzed in an Attune NxT flow cytometer (Thermo Fisher). Median fluorescence intensities (MFI) of the APC/Cy5-channel were calculated by Attune NxT software.
As to {DOTA}-YCE[dP]DWLTWSC-NH2 (linker 2-11 via mXylylene; also: ['indium complexed by DOTA']) [3BP-3906], the pIC50 is greater than 8 pic50.
Take B1: the pIC50 is greater than 8 pic50.
Molecule Ac-VFCE[dP]DWLTWE([Apr-DOTA])C-NH2 (linker 3-12 via mXylylene; reading uncertain) [3BP-3874] yielded a pIC50 greater than 8 pic50.
{DOTA-APAc}-VYCE[dE](AGLU′)DWLTWSC-NH2 (linker 3-12 via mXylylene; reading uncertain) [3BP-4119]: the pIC50 is greater than 8 pic50.
On the same count and under the same terms, the result for {DOTA-APAc}-VYCE[dP]DWLTWEC-NH2 (linker 3-12 via mXylylene; not fully specified (residue 11); reading uncertain) [3BP-4122] reads greater than 8 pic50; that for B2, greater than 8 pic50; that for {DOTA-APAc}-VYCQ[dP]DWLTWSC-NH2 (linker 3-12 via mXylylene; reading uncertain) [3BP-4104], greater than 8 pic50.
{DOTA-APAc}-VYC[NMeS][dP]DWLTWSC-NH2 (linker 3-12 via mXylylene; reading uncertain) [3BP-4108] came in with a pIC50 greater than 8 pic50.
Turning to {DOTA-APAc″}-VYCE[dP]E(NHMe2Nph)WLTWSC-NH2 (linker 3-12 via mXylylene; reading uncertain) [3BP-4215], the pIC50 is greater than 8 pic50.
With {DOTA-APAc}-VSCE[dP]DWLTWSC-NH2 (linker 3-12 via mXylylene; reading uncertain) [3BP-4105], the pIC50 was greater than 8 pic50.
For {DOTA-APAc}-VYCE[dP]C(2Quyl)WLTWSC-NH2 (linker 3-12 via mXylylene; not fully specified; reading uncertain) [3BP-4129], the pIC50 was greater than 8 pic50.
As to {DOTA-APAc}-VYCE[dP]DYLTWSC-NH2 (linker 3-12 via mXylylene; not fully specified; reading uncertain) [3BP-4136], the pIC50 is greater than 8 pic50.
The molecule {DOTA-APAc}-VE(AGLU′)CE[dP]DWLTWSC-NH2 (linker 3-12 via mXylylene; reading uncertain) [3BP-4112] had a pIC50 greater than 8 pic50.
{DOTA-APAc}-VYCE[dP]DWLE(AGLU′)WSC-NH2 (linker 3-12 via mXylylene; reading uncertain) [3BP-4121] had a pIC50 greater than 8 pic50.
Still for that read-out and setting: the result for {DOTA-APAc}-VYCE[dP]NWLTWSC-NH2 (linker 3-12 via mXylylene; reading uncertain) [3BP-4103] reads greater than 8 pic50; that for {DOTA-APAc}-VYCE[dP]DC(Bn)LTWSC-NH2 (linker 3-12 via mXylylene; not fully specified; reading uncertain) [3BP-4130], greater than 8 pic50; that for {DOTA-APAc}-VYCE[dP]C(Bn)WLTWSC-NH2 (linker 3-12 via mXylylene; not fully specified; reading uncertain) [3BP-4128], greater than 8 pic50.
{DOTA-APAc}-VYCE[dP]Y(Bn)WLTWSC-NH2 (linker 3-12 via mXylylene; not fully specified; reading uncertain) [3BP-4127] gave a pIC50 greater than 8 pic50.
Turning to B3, the pIC50 was greater than 8 pic50.
In the case of B4, the pIC50 was greater than 8 pic50.
For B5, the pIC50 was greater than 8 pic50.
With {DOTA-APAc}-VYCE[dP][hSer]WLTWSC-NH2 (linker 3-12 via mXylylene; reading uncertain) [3BP-4102], the pIC50 was greater than 8 pic50.
Turning to {DOTA-APAc}-VYCE[dP][Eem]WLTWSC-NH2 (linker 3-12 via mXylylene; not fully specified; reading uncertain) [3BP-4123], the pIC50 is greater than 8 pic50.

Another assay shares this target. The experiment in a line: FACS competition on HT-29 cells against tracer 3BP-2776; pIC50 category A = pIC50 >8.0.
B6 displayed a pIC50 greater than 8 pic50.
Molecule B7 showed a pIC50 greater than 8 pic50.
